Assay results reported in CN111848800A (SANYOU BIOPHARMACEUTICALS CO LTD, dated 2020).

Experiments:
人PD-L1 (全长蛋白, on cells) [1] = target: T1, 人PD-L1 (全长蛋白, on cells) (human, UniProt Q9NZQ7 19-290); assay: FACS competition on human PD-L1-CHO cells against biotin CD80 (1 μg/mL)
T1 construct: whole, on cells; also called 人PD-L1-CHO; PD-L1-CHO

[2] = target: T2, 恒河猴PD-L1 (全长蛋白, on CHO-s cells) (rhesus monkey, UniProt F6VEW6 19-290); assay: FACS on monkey PD-L1-CHO cells
T2 construct: whole, on cells; also called 猴PD-L1-CHO

人PD-L1 (全长蛋白, on cells) [3] = target: T1, 人PD-L1 (全长蛋白, on cells); assay: FACS competition on human PD-L1-CHO cells against biotin PD-1-Fc (1 μg/mL)
[4] = target: T3, B7-H2 recombinant protein (义翘神州 11559-H08H) (UniProt O75144 19-258); assay: ELISA, protein coated at 2 μg/mL, anti-human IgG Fc-HRP; N/A means 未检出结合活性
T3 sequence (looked up): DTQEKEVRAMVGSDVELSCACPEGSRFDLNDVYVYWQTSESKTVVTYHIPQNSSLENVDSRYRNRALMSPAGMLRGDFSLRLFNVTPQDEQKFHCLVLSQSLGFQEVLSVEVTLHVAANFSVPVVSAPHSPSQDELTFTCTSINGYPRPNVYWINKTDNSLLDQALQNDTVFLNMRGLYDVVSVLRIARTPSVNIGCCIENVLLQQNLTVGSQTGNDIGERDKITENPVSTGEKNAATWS

[5] = target: T4, B7-H4 recombinant protein (义翘神州 10738-H08H) (UniProt Q7Z7D3 25-258); assay: as above
T4 sequence (looked up): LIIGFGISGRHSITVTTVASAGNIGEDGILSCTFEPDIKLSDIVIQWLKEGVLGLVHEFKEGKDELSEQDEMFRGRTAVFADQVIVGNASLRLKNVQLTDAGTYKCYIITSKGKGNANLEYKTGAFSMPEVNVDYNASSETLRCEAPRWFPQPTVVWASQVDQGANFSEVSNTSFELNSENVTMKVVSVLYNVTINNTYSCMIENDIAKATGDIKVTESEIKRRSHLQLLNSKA

[6] = target: T5, B7-DC recombinant protein (义翘神州 10292-H08H-B) (UniProt Q9BQ51 20-219); assay: as above
T5 sequence (looked up): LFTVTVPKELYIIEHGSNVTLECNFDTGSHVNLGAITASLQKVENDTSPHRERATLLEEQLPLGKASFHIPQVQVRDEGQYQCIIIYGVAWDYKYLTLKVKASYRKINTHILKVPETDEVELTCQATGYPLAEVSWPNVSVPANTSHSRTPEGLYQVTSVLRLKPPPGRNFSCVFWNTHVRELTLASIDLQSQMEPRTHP

[7] = target: T6, B7-H3 recombinant protein (义翘神州 11188-H08H) (UniProt Q5ZPR3 29-461); assay: as above
T6 sequence (looked up): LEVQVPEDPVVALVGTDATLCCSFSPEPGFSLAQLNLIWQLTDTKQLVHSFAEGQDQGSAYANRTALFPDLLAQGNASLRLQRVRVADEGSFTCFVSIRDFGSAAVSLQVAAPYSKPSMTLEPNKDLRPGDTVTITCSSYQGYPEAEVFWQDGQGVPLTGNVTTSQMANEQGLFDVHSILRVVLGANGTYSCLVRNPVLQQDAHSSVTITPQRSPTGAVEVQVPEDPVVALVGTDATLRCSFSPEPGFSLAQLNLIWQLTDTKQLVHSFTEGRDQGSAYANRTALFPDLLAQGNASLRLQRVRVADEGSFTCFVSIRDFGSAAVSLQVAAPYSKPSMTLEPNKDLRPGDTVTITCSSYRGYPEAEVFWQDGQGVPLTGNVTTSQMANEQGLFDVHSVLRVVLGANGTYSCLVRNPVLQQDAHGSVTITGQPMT

人PD-L1 (全长蛋白, on cells) [8] = target: T1, 人PD-L1 (全长蛋白, on cells); assay: FACS on human PD-L1-CHO cells, PE anti-human IgG Fc
[9] = target: T7, 鼠PD-L1 (全长蛋白, on CHO-s cells) (mouse, UniProt Q9EP73 19-290); assay: FACS on mouse PD-L1-CHO cells, PE anti-human IgG Fc
T7 construct: whole, on cells; also called 小鼠PD-L1-CHO; 鼠PD-L1-CHO
T7 sequence (Q9EP73 19-290): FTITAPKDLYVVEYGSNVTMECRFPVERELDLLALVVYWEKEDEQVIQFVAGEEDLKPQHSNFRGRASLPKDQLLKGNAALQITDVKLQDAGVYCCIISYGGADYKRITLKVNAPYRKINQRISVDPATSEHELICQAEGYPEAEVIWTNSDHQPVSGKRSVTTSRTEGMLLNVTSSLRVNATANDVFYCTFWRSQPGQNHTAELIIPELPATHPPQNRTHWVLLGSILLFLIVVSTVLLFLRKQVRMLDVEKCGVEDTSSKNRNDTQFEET

T1 sequence (Q9NZQ7 19-290): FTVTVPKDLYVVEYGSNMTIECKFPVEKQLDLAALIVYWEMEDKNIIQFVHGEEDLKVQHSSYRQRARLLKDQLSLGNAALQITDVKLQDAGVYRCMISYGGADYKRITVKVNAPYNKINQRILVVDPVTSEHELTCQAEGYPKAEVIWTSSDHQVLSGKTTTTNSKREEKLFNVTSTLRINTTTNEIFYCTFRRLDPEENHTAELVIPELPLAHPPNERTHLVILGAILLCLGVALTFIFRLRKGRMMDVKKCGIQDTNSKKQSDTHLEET

IC50 (人PD-L1 (全长蛋白, on cells) [1]): 0.631 µg/mL
EC50 [2]: 0.21 µg/mL
IC50 (人PD-L1 (全长蛋白, on cells) [3]): 0.39 µg/mL
binding result [4]: no binding
binding result [5]: no binding
binding result [6]: no binding
binding result [7]: no binding
EC50 (人PD-L1 (全长蛋白, on cells) [8]): 0.39 µg/mL
binding result [9]: no binding (tested: 20μg/mL)
B1: KN035 (Fc fusion)
chain: QVQLVESGGGLVQPGGSLRLSCAASGFTFSRRCKAWFRQAPGKERERVAKILTTSGSTYLADSVKGRFTISRDNSKNTVYLQMNSLRAEDTAVYYCAADSFEDPTCTLVTSSGAFQYWGQGTLVTVSS
notes: Control antibody made from the synthesised whole gene in ExpiCHO; the molecule is detected with anti-human IgG Fc; also called KN035(对照); 对照抗体KN035
